# B1: Nb21 (VHH)
# VHH: QVQLVESGGGLVQAGGSLRLSCAVSGLGAHRVGWFRRAPGKEREFVAAIGANGGNTNYLDSVKGRFTISRDNAKNTIYLQMNSLKPQDTAVYYCAARDIETAEYTYWGQGTQVTVSS
# B2: Nb17 (VHH)
# VHH: HVQLVESGGGLVQAGGSLRLSCAASGSIFSSNAMSWYRQAPGKQRELVASITSGGNADYADSVKGRFTISRDKNTVYPEMSSLKPADTAVYYCHAVGQEASAYAPRAYWGQGTQVTVSS
# B3: Nb36 (VHH)
# VHH: VQLVESGGGLVQAGGSLTLTCAASGRTFSSETMDMGWFRQAPGKEREFVAADSWNDGSTYYADSVKGRFTISRDSAKNTLYLQMNSLKPEDTAVYYCAAETYSIYEKDDSWGYWGQGTQVTVS
# Molecular target: SARS-CoV-2 spike receptor-binding domain (RBD), wild type (SARS-CoV-2, Wuhan-Hu-1 (wild type), UniProt P0DTC2)
# Test: cryo-EM structure
row,Binder,binding result
1,B1,binds
2,B2,binds
3,B3,binds

# Source: paper PMC7987009 (bioRxiv, 2021)
